By stoichiometry N is commonly meant a count of units in the complex or per binding partner.

The text below walks through data of publication PMC8234031, “Modular Assembly of Phosphite Dehydrogenase and Phenylacetone Monooxygenase for Tuning Cofactor Regeneration” (Biomolecules, 2021).

The target in test [1] is PTDHI (phosphite dehydrogenase with a C-terminal RIDD tag).
The target of test [2] is PTDHA2 (phosphite dehydrogenase with a C-terminal RIAD–RIAD tag). Kind of test: SEC; each purified tagged protein alone, in the absence of any other tagged protein; Superdex 200 (10/300), 50 mM Tris–HCl with 150 mM NaCl, pH 7.5. Background: SEC sorts molecules by how far they enter the pores of the column.
The target of test [3] is PTDHA (phosphite dehydrogenase with a C-terminal RIAD tag). The description is as above.

As to “PAMOA2 (phenylacetone monooxygenase with a C-terminal RIAD–RIAD tag) (enzyme)”, in test [1], the conversion of 5.0 mM bicyclo[3.2.0]hept-2-en-6-one after 24 h by the mixture of the two tagged enzymes was determined as 78%.

For “PAMOA (phenylacetone monooxygenase with a C-terminal RIAD tag) (enzyme)”, the conversion of 5.0 mM bicyclo[3.2.0]hept-2-en-6-one after 24 h by the mixture of the two tagged enzymes in test [1] is 78%.

Regarding “PTDHA2 (phosphite dehydrogenase with a C-terminal RIAD–RIAD tag) (enzyme)”, the stoichiometry N in test [2] turned out to be 2.

The substance “PTDHA (phosphite dehydrogenase with a C-terminal RIAD tag) (enzyme)” came in with a stoichiometry N in test [3] of 2.
